Results taken from article PMC6563288.

Target: VP1(289A)-Flag (enterovirus A71 (C4))
Assay: co-IP

In the case of “Vimentin (VIM) (from UniProt P08670 1-466) (natural protein)”, the fold VIM pulled down, against VP1(289T)-Flag was 1.6 fold.
